These results are taken from paper PMC2217618 (Apoptosis, 2007).

[ ]: non-standard residue; d: D form.

The target in the test is αvβ3 integrin (human (endogenous in HUVEC), UniProt P06756;P05106). In words: radioligand binding.
αvβ3 integrin, sequence (P06756 31-1048, chain 1 of 2): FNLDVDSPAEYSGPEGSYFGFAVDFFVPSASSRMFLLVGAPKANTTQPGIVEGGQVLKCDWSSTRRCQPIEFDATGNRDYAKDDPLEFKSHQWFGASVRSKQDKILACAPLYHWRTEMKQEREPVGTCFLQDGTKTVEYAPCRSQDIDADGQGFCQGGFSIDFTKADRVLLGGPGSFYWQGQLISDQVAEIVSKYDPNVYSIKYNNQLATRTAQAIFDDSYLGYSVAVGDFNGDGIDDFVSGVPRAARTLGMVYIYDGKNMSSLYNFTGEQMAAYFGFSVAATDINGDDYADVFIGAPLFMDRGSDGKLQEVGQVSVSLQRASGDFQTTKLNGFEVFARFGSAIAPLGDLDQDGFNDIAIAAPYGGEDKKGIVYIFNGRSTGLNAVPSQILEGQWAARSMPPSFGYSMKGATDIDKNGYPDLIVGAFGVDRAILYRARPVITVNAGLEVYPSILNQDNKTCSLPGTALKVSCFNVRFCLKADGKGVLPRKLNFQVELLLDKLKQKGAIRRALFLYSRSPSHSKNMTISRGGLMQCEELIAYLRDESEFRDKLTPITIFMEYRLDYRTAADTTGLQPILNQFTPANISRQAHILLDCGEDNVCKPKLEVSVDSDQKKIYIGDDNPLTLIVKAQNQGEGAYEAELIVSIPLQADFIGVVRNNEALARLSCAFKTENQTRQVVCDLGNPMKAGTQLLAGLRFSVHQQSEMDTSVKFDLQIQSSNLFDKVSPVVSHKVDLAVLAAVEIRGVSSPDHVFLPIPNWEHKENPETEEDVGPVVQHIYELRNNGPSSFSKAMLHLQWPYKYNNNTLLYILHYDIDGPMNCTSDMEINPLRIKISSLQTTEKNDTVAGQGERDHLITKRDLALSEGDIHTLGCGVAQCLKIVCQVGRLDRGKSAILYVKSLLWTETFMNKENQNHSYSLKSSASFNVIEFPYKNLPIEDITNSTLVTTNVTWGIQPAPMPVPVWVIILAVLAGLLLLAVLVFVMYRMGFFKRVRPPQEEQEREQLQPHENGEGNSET
αvβ3 integrin, sequence (P05106 27-788, chain 2 of 2): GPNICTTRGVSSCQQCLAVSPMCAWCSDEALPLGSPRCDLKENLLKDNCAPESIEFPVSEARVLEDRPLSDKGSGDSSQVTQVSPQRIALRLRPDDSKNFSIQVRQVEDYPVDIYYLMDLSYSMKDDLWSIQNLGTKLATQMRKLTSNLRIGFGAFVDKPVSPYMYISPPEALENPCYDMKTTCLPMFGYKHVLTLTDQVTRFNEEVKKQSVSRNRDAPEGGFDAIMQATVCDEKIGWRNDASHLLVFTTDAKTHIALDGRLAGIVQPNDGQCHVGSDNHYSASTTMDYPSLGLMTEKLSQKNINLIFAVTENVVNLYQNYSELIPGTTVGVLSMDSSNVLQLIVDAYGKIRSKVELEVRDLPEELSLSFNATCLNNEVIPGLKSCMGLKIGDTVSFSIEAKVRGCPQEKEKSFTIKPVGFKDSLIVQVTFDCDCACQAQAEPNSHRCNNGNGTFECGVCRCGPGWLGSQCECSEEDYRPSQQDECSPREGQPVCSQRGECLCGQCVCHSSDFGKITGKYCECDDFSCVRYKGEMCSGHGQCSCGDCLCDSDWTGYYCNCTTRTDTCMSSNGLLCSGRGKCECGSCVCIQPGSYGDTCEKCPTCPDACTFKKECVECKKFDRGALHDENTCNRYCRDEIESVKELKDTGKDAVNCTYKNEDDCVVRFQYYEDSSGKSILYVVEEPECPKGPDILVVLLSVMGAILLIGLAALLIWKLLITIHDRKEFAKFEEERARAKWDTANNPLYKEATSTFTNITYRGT

As for cyclo(RGD[dF]K(S‑acetylthioacetyl)) [RGD peptide c(RGDf(ε-S-acetylthioacetyl)K)], the IC50 was found to be 383 nM.
